Results on one molecule are retold here after patent publication US20090142281A1, “Composition Comprising A Coupled Enzyme System” (priority 2005, published 2009).

Data set [1] is described as follows: In gel overlay activity assay (PMS/NBT) using sorbitol as substrate. The format is biochemical. Conditions: native gel.
Text: b) In gel overlay activity assay (PMS/NBT) using sorbitol as substrate.
The cell lysates were fractionated on a native gel that was further tested in an in-gel overlay activity assay using sorbitol as the substrate and an assay based on the PMS mediated reduction of NBT. […] The PMS/NBT is a diagnostic assay for flavoproteins where PMS=phenazine methosulfate is a redox mediator which is reduced by reduced FAD.
For data set [2] the following is noted: cited from earlier work.

B1: sorbitol oxidase from Streptomyces species H-7775: sorbitol oxidase of Streptomyces sp. H-7775, SEQ ID NO 1, 420 amino acids (protein)
chain: MTPAEKNWAGNITFGAKRLCVPRSVRELRETVAASGAVRPLGTRHSFNTVADTSGDHVSLAGLPRVVDIDVPGRAVSLSAGLRFGEFAAELHARGLALANLGSLPHISVAGAVATGTHGSGVGNRSLAGAVRALSLVTADGETRTLRRTDEDFAGAVVSLGALGVVTSLELDLVPAFEVRQWVYEDLPEATLAARFDEVMSAAYSVSVFTDWRPGPVGQVWLKQRVGDEGARSVMPAEWLGARLADGPRHPVPGMPAGNCTAQQGVPGPWHERLPHFRMEFTPSNGDELQSEYFVARADAVAAYEALARLRDRIAPVLQVSELRTVAADDLWLSPAHGRDSVAFHFTWVPDAAAVAPVAGAIEEALAPFGARPHWGKVFSTAPEVLRTLYPRYADFEELVGRHDPEGTFRNAFLDRYFRR
modifications: Streptomyces sp. H7775
As to B1, the “activity towards sorbitol (stained band)” value in data set [1] is on record as “has activity towards sorbitol”. Further, the “pH range of stability” value in data set [2] (24 hours at 30° C.) is 7.5-10 pH. The optimum temperature in data set [2] (at pH 7.5) is 50 °C.
